The target in assay [1] is SARS-CoV2 S蛋白, 奥密克戎 (Omicron:BA.1), on pseudovirus (SARS-CoV2). Briefly: cell-based or functional assay.
Assay [2] addresses SARS-CoV2 S蛋白, 拉姆达 (Lambda:C.37), on pseudovirus (SARS-CoV2). Briefly: cell-based or functional assay.

B1: 全人源单克隆抗体YK-CoV2-03 (fully human anti-SARS-CoV2 monoclonal antibody, whole IgG) (antibody, V domains shown)
VH: EVQLQESGGGLVQPGGSLRLSCAASGLTVSRNYMTWVRQAPGKGLEWVSLIYAGGSTYYADSVKGRFTISRDNSKNTLYLQMNSLGAEDTAVYYCARDLVYYGMDVWGQGTTVTVAS
VL: DIQMTQSPFSLSASVGDRVTITCRASQGISSYLAWYQQKPGKAPKLLIYAASTLQSGVPSRFSGSGSGTDFTLTISSLQPEDFATYYCQHLNSDRYTFGQGTKLEI
For the molecule B1, the figures for the pseudovirus neutralisation IC50 (luciferase RLU, 293T-hACE2 cells) in assay [1] and in assay [2] were 0.32 µg/mL and 0.0209 µg/mL, respectively.

The values above are taken from patent publication CN114656556A.
